Data from PMC4775424 (Structure (London, England : 1993), 2016).
Entries after “also recorded” stand apart in the source; their conditions may differ.

What was measured:
human ORC1 BAH domain = details: human version; ref Kuo et al., 2012; cited from earlier work
mouse ORC1 BAH domain = details: mouse version; four-residue aromatic cage; ref Kuo et al., 2012; cited from earlier work
[1] = target: H3 peptide dimethylated at K4; assay: ITC
[2] = target: unmodified H3(1-15) peptide; assay: ITC
[3] = target: H3 peptide monomethylated at K4; assay: ITC

fold decrease of the binding against the unmodified H3 peptide [1] | Kd [2] | fold decrease of the binding against the unmodified H3 peptide [3] | Molecule | recognition by ORC1 BAH domain (human ORC1 BAH domain) | recognition by ORC1 BAH domain (mouse ORC1 BAH domain)
– | – | – | H4K20me2: histone mark H4K20me2 / H4K20me2 peptide bound by metazoan ORC1 BAH domains | specifically recognize | can use a four-residue aromatic cage to recognize the methyllysine of H4K20me2; also recorded: specifically recognize
10 fold | 3000 nM | 4 fold | Arabidopsis thaliana ORC1b BAH-PHD cassette (domain or fragment) SETIKKTKKKKRVYYNKVEFDETEFEIGDDVYVKRREDSNSDEEEDPEIEDCQICFKSDTNIMIECDDCLGGFHLKCLKPPLKEVPEGDWICQFCEVKKSGQSQTLDLPKPPEGKKLARTMREKLLSGDLWAARIDKLWKEVDDGVYWIRARWYMIPEETVSGRQPHNLKRELYLTNDFADIEMECILRHCSVKCPKEFSKASNDGDDVFLCEYEYDVHWRSFKRLAELADG | – | –
